Assay results published in patent publication US20230095004.

Key:
[1] = target: T1, Angiopoietin-2 (Ang2) (Homo sapiens) (UniProt O15123); test: flow; details: 2'-F
T1 sequence: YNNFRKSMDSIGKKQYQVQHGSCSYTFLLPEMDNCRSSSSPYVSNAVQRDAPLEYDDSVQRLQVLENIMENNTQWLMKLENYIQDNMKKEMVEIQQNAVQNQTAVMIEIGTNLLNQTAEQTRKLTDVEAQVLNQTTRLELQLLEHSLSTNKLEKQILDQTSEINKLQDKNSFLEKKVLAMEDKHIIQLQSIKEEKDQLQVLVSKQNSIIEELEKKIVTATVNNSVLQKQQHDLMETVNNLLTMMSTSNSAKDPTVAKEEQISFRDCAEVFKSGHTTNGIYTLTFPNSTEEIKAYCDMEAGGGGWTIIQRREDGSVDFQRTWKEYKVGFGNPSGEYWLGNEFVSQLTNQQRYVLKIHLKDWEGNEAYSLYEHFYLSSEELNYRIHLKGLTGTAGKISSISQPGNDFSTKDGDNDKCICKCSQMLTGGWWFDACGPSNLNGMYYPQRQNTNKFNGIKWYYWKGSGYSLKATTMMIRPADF

[2] = system: T2, VEGF-165 (VEGF-A) (Homo sapiens); test: flow; details: 2'-F
T2 sequence: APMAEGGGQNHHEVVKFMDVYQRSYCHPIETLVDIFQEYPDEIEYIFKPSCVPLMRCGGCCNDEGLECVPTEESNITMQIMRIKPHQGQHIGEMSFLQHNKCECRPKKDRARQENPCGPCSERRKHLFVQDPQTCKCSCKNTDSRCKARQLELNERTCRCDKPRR

[3] = OO linker replacing UUUUA after UGCAUGCA
[4] = hexaethylene glycol (H) linker replacing UUUUA after UGCAUGCA
[5] = OOOO linker replacing UUUUA after UGCAUGCA
[6] = internal hexaethylene glycol (H) linker in Ang2 part

With “UGCAUGCACCAGUGAGUCGGAUCUCCGCAUAGAUAAGCCAACAAACGUACAUUCUCUGUUAGUAUUUUCUGCG [AMSB107.26]” as the sequence, how does the Kd [1, 3] read?
The Kd was 0.076 nM.

What about the Kd [2, 3] of the same sequence?
Its Kd is 0.056 nM.

Which Kd [1, 4] does the source give for “UGCAUGCACCAGUGAGUCGGAUCUCCGCAUAGAUAAGCCAACAAACGUACAUUCUCUGUUAGUAUUUUCUGCG [AMSB107.22]” here?
The Kd was 0.098 nM.

What about the Kd [2, 4] of the same sequence?
Its Kd is 0.055 nM.

What does the source list for “UGCAUGCACCAGUGAGUCGGAUCUCCGCAUAGAUAAGCCAACAAACGUACAUUCUCUGUUAGUAUUUUCUGCG [AMSB107.27]”?
Kd [1, 5]: 0.079 nM; Kd [2, 5]: 0.059 nM

For “UGCAUGCAUUUUACCAGUGAGUCGGAUCUCCGCAUAGAUAAGCCAACAAACGUACAUUCUCUGUUAGUAUUUUCUGCG [AMSB107.23]”, which Kd ([1]; 5' hexaethylene glycol (H)) is on record?
The Kd was 0.084 nM.

And the Kd ([2]; 5' hexaethylene glycol (H))?
The Kd was 0.049 nM.

Which Kd [1, 6] does the source give for “UGCAUGCAUUUUACCAGUGAGUCGGAUCUCCGCAUAGAUAAGCCAACAAACGUUCUCUGUUAGUAUUUUCUGCG [AMSB107.25]” here?
The Kd was 1.41 nM.

And the Kd [2, 6]?
The Kd was 0.224 nM.

Which Kd [1, 6] does the source give for “UGCAUGCAUUUUACCAGUGAGUCGGAUCUCCGCAUAGAUAAGCCAACAAAUUCUCUGUUAGUAUUUUCUGCG [AMSB107.24]” here?
Its Kd is 1.78 nM.

What about the Kd [2, 6] of the same sequence?
Its Kd is 0.209 nM.
